{"source": "paper PMC9628480", "about": "“Discovery and structural characterization of chicoric acid as a SARS-CoV-2 nucleocapsid protein ligand and RNA binding disruptor”", "binders": {"B1": {"name": "RNA1 (structured_RNA)", "RNA": "CACUCACUGUCUUUUUUGAUGGUAGAGU"}}, "key": {"[1]": {"target": "N protein NTD (SARS-CoV-2, UniProt A0A6B9VLF5 43-174)", "test": "fluorescence polarization", "details": "protein: recombinant; tags: SUMO tag (pET-SUMO) cleaved; label: 5'-FITC; hairpin"}, "[2]": {"target": "N protein CTD (SARS-CoV-2, UniProt A0A6B9VLF5 250-364)", "test": "fluorescence polarization", "details": "protein: recombinant; tags: SUMO tag (pET-SUMO) cleaved; chain copies: 2; label: 5'-FITC; hairpin"}}, "data": [{"binder": "B1", "values": [{"measurement": "binding result", "setting": "[1]", "value": "no binding"}, {"measurement": "binding result", "setting": "[2]", "value": "no binding"}]}]}
